Common to all, as to assay: BLI; Octet RED96; client biotinylated and loaded on streptavidin sensors; Spy or Spy variant in solution at 0.25, 0.5, 1, 1.5 and 2 μM; 40 mM HEPES, 150 mM NaCl, pH 7.5; Kd calculated as koff/kon
Holding throughout (conditions): both partners purified

The target of one assay is T1, Spy_(27-127) (UniProt P77754 50-150).
T1 construct: Spy chaperone, residues 27-127; source: E. coli BL21 (DE3), purified (Ni-NTA, cation exchange, SEC); not shown: His6, N-terminal, cleaved; SUMO, N-terminal, cleaved
T1 sequence (looked up): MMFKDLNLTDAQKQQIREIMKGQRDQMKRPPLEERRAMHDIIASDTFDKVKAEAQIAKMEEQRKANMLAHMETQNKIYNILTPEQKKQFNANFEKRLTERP
In outline:
(§1)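 Association was recorded with an Octet RED96 as streptavidin sensors carrying client proteins, biotinylated with EZ-link NHS-biotin at a 1:1 molar ratio, sat in 40 mM HEPES, 150 mM NaCl, pH 7.5 with 0.25 to 2 μM of the analyte protein (0.25, 0.5, 1, 1.5 and 2 μM). Dissociation followed after transfer to analyte-free buffer. Both wavelength-shift phases were fitted in SigmaPlot 12.0 to obtain koff and the observed association rate, whose dependence on analyte concentration yielded kon, with Kd defined as koff divided by kon.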

The target of another assay is T2, Spy_(29-130) (UniProt P77754 52-153).
T2 construct: Spy chaperone, residues 29-130; source: E. coli BL21 (DE3), purified (Ni-NTA, cation exchange, SEC); not shown: His6, N-terminal, cleaved; SUMO, N-terminal, cleaved
T2 sequence (looked up): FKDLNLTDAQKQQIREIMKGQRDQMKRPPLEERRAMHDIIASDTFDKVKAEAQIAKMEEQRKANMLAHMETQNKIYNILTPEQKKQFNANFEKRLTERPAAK
In outline: as §1

The target of a further assay is T3, Spy_(29-127) (UniProt P77754 52-150).
T3 construct: Spy chaperone, residues 29-127; source: E. coli BL21 (DE3), purified (Ni-NTA, cation exchange, SEC); not shown: His6, N-terminal, cleaved; SUMO, N-terminal, cleaved
T3 sequence (looked up): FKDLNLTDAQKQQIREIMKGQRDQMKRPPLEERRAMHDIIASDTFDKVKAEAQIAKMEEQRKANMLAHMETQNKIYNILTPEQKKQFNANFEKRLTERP
An outline of the steps:
as §1

In a further assay the target is T4, Spy_(1-124) (UniProt P77754 24-147).
T4 construct: source: E. coli BL21 (DE3), purified (Ni-NTA, cation exchange, SEC); not shown: His6, N-terminal, cleaved; SUMO, N-terminal, cleaved
T4 sequence (looked up): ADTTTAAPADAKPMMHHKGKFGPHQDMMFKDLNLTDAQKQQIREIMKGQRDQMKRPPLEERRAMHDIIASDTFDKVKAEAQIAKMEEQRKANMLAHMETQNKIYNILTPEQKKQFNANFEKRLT
An outline of the steps:
as §1

Another assay addresses T5, Spy_(21-127) (UniProt P77754 44-150).
T5 construct: Spy chaperone, residues 21-127; source: E. coli BL21 (DE3), purified (Ni-NTA, cation exchange, SEC); not shown: His6, N-terminal, cleaved; SUMO, N-terminal, cleaved
T5 sequence (looked up): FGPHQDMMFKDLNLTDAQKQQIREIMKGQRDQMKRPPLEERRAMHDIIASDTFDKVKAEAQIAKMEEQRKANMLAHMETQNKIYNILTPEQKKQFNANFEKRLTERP
An outline of the steps: as §1

For the next assay, the target named is T6, Spy_(21-124) (UniProt P77754 44-147).
T6 construct: source: E. coli BL21 (DE3), purified (Ni-NTA, cation exchange, SEC); not shown: His6, N-terminal, cleaved; SUMO, N-terminal, cleaved
T6 sequence (looked up): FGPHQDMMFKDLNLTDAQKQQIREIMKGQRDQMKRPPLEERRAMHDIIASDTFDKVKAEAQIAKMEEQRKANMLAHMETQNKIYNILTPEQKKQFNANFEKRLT
An outline of the steps:
as §1

In another assay the target is T7, Spy_(24-130) (UniProt P77754 47-153).
T7 construct: Spy chaperone, residues 24-130; source: E. coli BL21 (DE3), purified (Ni-NTA, cation exchange, SEC); not shown: His6, N-terminal, cleaved; SUMO, N-terminal, cleaved
T7 sequence (looked up): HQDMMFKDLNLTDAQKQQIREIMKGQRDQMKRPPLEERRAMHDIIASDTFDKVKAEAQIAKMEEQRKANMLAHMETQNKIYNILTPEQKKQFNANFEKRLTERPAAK
An outline of the steps:
as §1

The target of a further assay is T8, Spy_(24-124) (UniProt P77754 47-147).
T8 construct: source: E. coli BL21 (DE3), purified (Ni-NTA, cation exchange, SEC); not shown: His6, N-terminal, cleaved; SUMO, N-terminal, cleaved
T8 sequence (looked up): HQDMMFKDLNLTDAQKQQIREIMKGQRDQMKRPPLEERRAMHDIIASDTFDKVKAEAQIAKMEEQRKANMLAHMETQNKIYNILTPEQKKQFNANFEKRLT
An outline of the steps: as §1

B1: Im7 H40W L53A I54A (natural protein)
chain: MELKNSISDYTEAEFVQLLKEIEKENVAATDDVLDVLLEWFVKITEHPDGTDAAYYPSDNRDDSPEGIVKEIKEWRAANGKPGFKQG
modifications: biotin (EZ-link NHS-biotin, 1:1 molar ratio of biotin to protein)
notes: Im7 (colicin E7 immunity protein) with H40W L53A I54A; Spy was made with an N-terminal His6-SUMO tag that was cleaved; also called Im7AAW; partially folded client; source: purified by a similar procedure to Spy
As to B1, the Kd (commonly the free concentration of one partner at which half of the binding sites on the other are occupied at equilibrium, for simple one-to-one binding) with Spy_(27-127) is 300 nM; in the assay with Spy_(29-130) it was 333 nM; with Spy_(29-127), 310 nM; with Spy_(1-124) it was 930 nM; with Spy_(21-127), 1980 nM; with Spy_(21-124) it was 1820 nM. Moreover, the values for the Kd with Spy_(24-130) and with Spy_(24-124) were 1460 nM and 1640 nM, respectively.

(Values after article PMC9122904, “Insights into the client protein release mechanism of the ATP-independent chaperone Spy” (Nature Communications, 2022).)
